Measured values published in patent publication US20250043302A1, “MUTATED HYDROXYPHENYLPYRUVATE DIOXYGENASE POLYPEPTIDE, AND CODING GENE AND USE THEREOF” (BEIJING DABEINONG BIOTECHNOLOGY CO., LTD., priority 2021, published 2025).

Key:
Type in all cases: in vivo
[1] = system: Arabidopsis thaliana T1 plants; test: Topramezone tolerance of transgenic Arabidopsis thaliana T1 plants (spray, bleached leaf area grade, damage score); details: for Resistance evaluation / Scores / Grade 0 (classification and statistics of the grade of pesticide damage; number of plants) / Grade 1 (classification and statistics of the grade of pesticide damage; number of plants) / Grade 2 (classification and statistics of the grade of pesticide damage; number of plants) / Grade 3 (classification and statistics of the grade of pesticide damage; number of plants): Arabidopsis thaliana T1 plants; for Grade 0 (classification and statistics of the grade of pesticide damage; number of plants) / Grade 1 (classification and statistics of the grade of pesticide damage; number of plants) / Grade 2 (classification and statistics of the grade of pesticide damage; number of plants) / Grade 3 (classification and statistics of the grade of pesticide damage; number of plants): 16 plants
Procedure, shortened: (§1)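 Damage was assessed by bleaching grade (0 none; 1 <50%; 2 >50%; 3 100% of leaf area) one week after spraying. Sprays on 18-day-old T1 and wild-type plants used field-rate multiples: topramezone 25–200, isoxaflutole 35–280, mesotrione 52.5–420 g ai/ha.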

[2] = system: Arabidopsis thaliana T1 plants; test: Isoxaflutole tolerance of transgenic Arabidopsis thaliana T1 plants (spray, bleached leaf area grade, damage score); details: Arabidopsis thaliana T1 plants; for Grade 0 (classification and statistics of the grade of pesticide damage; number of plants) / Grade 1 (classification and statistics of the grade of pesticide damage; number of plants) / Grade 2 (classification and statistics of the grade of pesticide damage; number of plants) / Grade 3 (classification and statistics of the grade of pesticide damage; number of plants): 16 plants;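 as to Scores: Weighted damage index from 0 to 100 where higher means more damage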
Procedure, shortened: as §1

[3] = system: Arabidopsis thaliana T1 plants; test: Mesotrione tolerance of transgenic Arabidopsis thaliana T1 plants (spray, bleached leaf area grade, damage score); parameters: Scores: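 damage score 0-100 computed as Σ(N×S)/(T×M)×100 over grades 0-3 with higher meaning more damage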; details: Table 9; for Classification and statistics of the grade of pesticide damage Grade 0: number of plants at grade 0; for Classification and statistics of the grade of pesticide damage Grade 1: number of plants at grade 1; for Classification and statistics of the grade of pesticide damage Grade 2: number of plants at grade 2; for Classification and statistics of the grade of pesticide damage Grade 3: number of plants at grade 3; for Scores: pesticide damage score
Procedure, shortened: as §1

[4] = topramezone 100 g ai/ha (4x field concentration)
[5] = topramezone 200 g ai/ha (8x field concentration)
[6] = isoxaflutole 140 g ai/ha (2x field concentration)
[7] = isoxaflutole 280 g ai/ha (4x field concentration)

B1: AsHPPDm-F372V-F383W-02: nucleotide sequence encoding Avena sativa HPPD with F372V+F383W; vector DBN11777 (nucleic acid)
DNA: ATGCCACCTACTCCAGCTACAGCTACTGGTGCTGCTGCTGCTGCCGTTACTCCTGAGCACGCTGCCAGGTCATTCCCCAGGGTGGTTCGCGTGAACCCCAGATCTGATAGGTTCCCAGTTCTGAGCTTCCACCATGTTGAGCTGTGGTGCGCTGATGCTGCTTCTGCTGCTGGCAGGTTCTCTTTCGCTCTTGGTGCTCCACTCGCTGCTAGATCTGATCTGTCTACAGGAAATAGCGCTCATGCCTCACTCCTGCTTCGCTCAGGTGCTTTGGCCTTCCTCTTCACCGCTCCATATGCTCCCCCACCTCAGGAGGCTGCTACTGCTGCTGCTACAGCCTCCATTCCAAGCTTCTCAGCTGATGCCGCTAGAACCTTCGCTGCTGCTCATGGACTTGCCGTGAGGTCTGTTGGTGTTCGCGTGGCTGATGCTGCTGAGGCTTTCAGAGTTTCCGTTGCCGGCGGAGCTAGGCCAGCTTTCGCTCCTGCTGATTTGGGACATGGTTTCGGCCTGGCTGAGGTTGAGCTTTACGGTGACGTGGTTCTCCGCTTCGTGTCTTACCCAGATGAGACTGACCTGCCTTTCCTTCCCGGCTTCGAGAGAGTTTCCTCTCCTGGTGCCGTGGATTACGGCCTGACAAGGTTCGACCACGTGGTTGGAAACGTTCCCGAGATGGCTCCAGTGATCGATTACATGAAGGGCTTCCTTGGATTCCATGAGTTCGCCGAGTTCACTGCTGAGGACGTGGGAACCACTGAGTCCGGTTTGAACTCTGTGGTTCTCGCCAACAATTCTGAGGCTGTTTTGCTCCCTCTGAATGAGCCTGTGCATGGAACCAAGAGGAGAAGCCAGATTCAAACTTACCTGGAGTACCACGGTGGCCCTGGAGTTCAGCATATCGCCCTTGCTTCTAATGATGTGTTGCGCACACTCAGAGAGATGCGCGCCAGAACCCCCATGGGAGGTTTCGAGTTCATGGCCCCACCACAGGCTAAGTACTACGAGGGCGTTAGAAGGATTGCTGGAGACGTGTTGAGCGAGGAGCAGATCAAGGAGTGCCAAGAGCTGGGTGTTCTTGTGGATAGGGATGACCAGGGCGTTCTGCTTCAAATTGTCACTAAGCCAGTGGGCGACCGCCCTACATTCTGGCTTGAGATGATTCAAAGAATCGGCTGCATGGAGAAGGATGAGGTTGGACAGGAGTACCAAAAGGGCGGATGCGGTGGCTTCGGAAAGGGTAACTTCAGCGAGTTGTTCAAGTCAATCGAGGACTACGAGAAGAGCCTCGAGGTGAAGCAGTCAGTGGTTGCCCAAAAGTCCTGA
modifications: AsHPPDm-F372V-F383W-02 Nucleotide Sequence
notes: vector DBN11777
Resistance evaluation [1, 4]: Highly resistant | Scores [1, 4]: 0 | Grade 0 (classification and statistics of the grade of pesticide damage; number of plants) [1, 4]: 16 | Grade 1 (classification and statistics of the grade of pesticide damage; number of plants) [1, 4]: 0 | Grade 2 (classification and statistics of the grade of pesticide damage; number of plants) [1, 4]: 0 | Grade 3 (classification and statistics of the grade of pesticide damage; number of plants) [1, 4]: 0 | Resistance evaluation [1, 5]: Highly resistant | Scores [1, 5]: 0 | Grade 0 (classification and statistics of the grade of pesticide damage; number of plants) [1, 5]: 16 | Grade 1 (classification and statistics of the grade of pesticide damage; number of plants) [1, 5]: 0 | Grade 2 (classification and statistics of the grade of pesticide damage; number of plants) [1, 5]: 0 | Grade 3 (classification and statistics of the grade of pesticide damage; number of plants) [1, 5]: 0 | tolerance to topramezone (resistance class) ([1]; topramezone at four-fold or eight-fold field concentration): highly-resistant | Resistance evaluation [2, 6]: Highly resistant | Scores [2, 6]: 0 | Grade 0 (classification and statistics of the grade of pesticide damage; number of plants) [2, 6]: 16 | Grade 1 (classification and statistics of the grade of pesticide damage; number of plants) [2, 6]: 0 | Grade 2 (classification and statistics of the grade of pesticide damage; number of plants) [2, 6]: 0 | Grade 3 (classification and statistics of the grade of pesticide damage; number of plants) [2, 6]: 0 | Resistance evaluation [2, 7]: Highly resistant | Scores [2, 7]: 10 | Grade 0 (classification and statistics of the grade of pesticide damage; number of plants) [2, 7]: 12 | Grade 1 (classification and statistics of the grade of pesticide damage; number of plants) [2, 7]: 3 | Grade 2 (classification and statistics of the grade of pesticide damage; number of plants) [2, 7]: 1 | Grade 3 (classification and statistics of the grade of pesticide damage; number of plants) [2, 7]: 0 | Resistance evaluation ([3]; mesotrione 210 g ai/ha (2×)): Highly resistant | Classification and statistics of the grade of pesticide damage Grade 0 ([3]; mesotrione 210 g ai/ha (2×)): 16 | Classification and statistics of the grade of pesticide damage Grade 1 ([3]; mesotrione 210 g ai/ha (2×)): 0 | Classification and statistics of the grade of pesticide damage Grade 2 ([3]; mesotrione 210 g ai/ha (2×)): 0 | Classification and statistics of the grade of pesticide damage Grade 3 ([3]; mesotrione 210 g ai/ha (2×)): 0 | Scores ([3]; mesotrione 210 g ai/ha (2×)): 0 | Resistance evaluation ([3]; mesotrione 420 g ai/ha (4×)): Highly resistant | Classification and statistics of the grade of pesticide damage Grade 0 ([3]; mesotrione 420 g ai/ha (4×)): 15 | Classification and statistics of the grade of pesticide damage Grade 1 ([3]; mesotrione 420 g ai/ha (4×)): 1 | Classification and statistics of the grade of pesticide damage Grade 2 ([3]; mesotrione 420 g ai/ha (4×)): 0 | Classification and statistics of the grade of pesticide damage Grade 3 ([3]; mesotrione 420 g ai/ha (4×)): 0 | Scores ([3]; mesotrione 420 g ai/ha (4×)): 2
